Experimental findings from article PMC10699790 (Science Advances, 2023) are described below.

For one experiment, the target named is HA-Halo-mGluR8 (human, UniProt O00222 34-908, Halo tag labeled with CA-SS-Alexa-488). The experiment is described as follows: single-molecule pulldown.
The next experiment addresses HA-Halo-mGluR2 (rat, UniProt P31421 19-872, Halo tag labeled with CA-SS-Alexa-488). Kind of experiment: single-molecule pulldown.

Chain of HA-Halo-mGluR8 (O00222 34-908): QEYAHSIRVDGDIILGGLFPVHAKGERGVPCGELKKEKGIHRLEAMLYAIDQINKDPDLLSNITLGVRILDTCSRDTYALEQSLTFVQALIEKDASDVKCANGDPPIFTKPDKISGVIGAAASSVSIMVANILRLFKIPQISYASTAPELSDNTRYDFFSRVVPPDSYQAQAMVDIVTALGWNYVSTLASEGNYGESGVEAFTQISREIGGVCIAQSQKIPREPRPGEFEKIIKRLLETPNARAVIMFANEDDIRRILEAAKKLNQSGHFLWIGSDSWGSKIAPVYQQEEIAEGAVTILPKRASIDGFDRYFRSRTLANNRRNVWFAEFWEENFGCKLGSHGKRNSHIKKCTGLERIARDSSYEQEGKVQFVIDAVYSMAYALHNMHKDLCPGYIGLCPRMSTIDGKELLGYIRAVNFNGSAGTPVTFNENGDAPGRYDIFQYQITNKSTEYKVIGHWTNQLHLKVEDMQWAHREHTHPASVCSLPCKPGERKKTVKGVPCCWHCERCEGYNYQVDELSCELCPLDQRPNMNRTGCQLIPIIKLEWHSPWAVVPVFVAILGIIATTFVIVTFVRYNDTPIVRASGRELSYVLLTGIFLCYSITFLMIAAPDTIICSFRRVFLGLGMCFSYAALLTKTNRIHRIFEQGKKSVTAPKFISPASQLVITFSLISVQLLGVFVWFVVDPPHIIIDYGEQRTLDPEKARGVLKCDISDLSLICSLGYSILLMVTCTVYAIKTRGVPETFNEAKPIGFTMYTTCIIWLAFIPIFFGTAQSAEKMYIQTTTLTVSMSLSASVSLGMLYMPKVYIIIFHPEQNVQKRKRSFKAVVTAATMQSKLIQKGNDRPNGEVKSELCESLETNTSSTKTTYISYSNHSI
Chain of HA-Halo-mGluR2 (P31421 19-872): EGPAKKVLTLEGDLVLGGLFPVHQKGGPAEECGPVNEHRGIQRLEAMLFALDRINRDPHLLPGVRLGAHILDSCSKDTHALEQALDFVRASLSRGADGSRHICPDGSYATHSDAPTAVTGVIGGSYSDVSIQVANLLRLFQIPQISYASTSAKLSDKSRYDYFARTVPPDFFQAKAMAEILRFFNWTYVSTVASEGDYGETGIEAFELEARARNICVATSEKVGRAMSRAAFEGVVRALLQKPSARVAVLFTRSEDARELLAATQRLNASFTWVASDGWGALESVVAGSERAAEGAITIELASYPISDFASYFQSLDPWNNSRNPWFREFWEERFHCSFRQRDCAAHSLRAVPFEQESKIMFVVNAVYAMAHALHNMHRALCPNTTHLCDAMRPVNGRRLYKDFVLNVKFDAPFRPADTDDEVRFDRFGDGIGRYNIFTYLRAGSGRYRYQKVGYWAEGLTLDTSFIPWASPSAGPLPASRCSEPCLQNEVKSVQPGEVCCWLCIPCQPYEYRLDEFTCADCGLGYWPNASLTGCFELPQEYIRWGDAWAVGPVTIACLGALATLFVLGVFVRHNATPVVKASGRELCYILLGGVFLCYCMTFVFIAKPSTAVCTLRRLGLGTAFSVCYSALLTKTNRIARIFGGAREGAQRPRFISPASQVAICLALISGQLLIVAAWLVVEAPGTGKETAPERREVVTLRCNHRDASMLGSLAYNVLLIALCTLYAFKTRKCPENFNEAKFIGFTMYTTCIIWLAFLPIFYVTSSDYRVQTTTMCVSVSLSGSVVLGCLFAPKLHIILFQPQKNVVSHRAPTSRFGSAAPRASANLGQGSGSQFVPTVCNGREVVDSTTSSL

B1: SNAP-mGluR3 without an HA tag (receptor)
chain: LGDHNFMRREIKIEGDLVLGGLFPINEKGTGTEECGRINEDRGIQRLEAMLFAIDEINKDNYLLPGVKLGVHILDTCSRDTYALEQSLEFVRASLTKVDEAEYMCPDGSYAIQENIPLLIAGVIGGSYSSVSIQVANLLRLFQIPQISYASTSAKLSDKSRYDYFARTVPPDFYQAKAMAEILRFFNWTYVSTVASEGDYGETGIEAFEQEARLRNICIATAEKVGRSNIRKSYDSVIRELLQKPNARVVVLFMRSDDSRELIAAANRVNASFTWVASDGWGAQESIVKGSEHVAYGAITLELASHPVRQFDRYFQSLNPYNNHRNPWFRDFWEQKFQCSLQNKRNHRQVCDKHLAIDSSNYEQESKIMFVVNAVYAMAHALHKMQRTLCPNTTKLCDAMKILDGKKLYKEYLLKINFTAPFNPNKGADSIVKFDTFGDGMGRYNVFNLQQTGGKYSYLKVGHWAETLSLDVDSIHWSRNSVPTSQCSDPCAPNEMKNMQPGDVCCWICIPCEPYEYLVDEFTCMDCGPGQWPTADLSGCYNLPEDYIKWEDAWAIGPVTIACLGFLCTCIVITVFIKHNNTPLVKASGRELCYILLFGVSLSYCMTFFFIAKPSPVICALRRLGLGTSFAICYSALLTKTNCIARIFDGVKNGAQRPKFISPSSQVFICLGLILVQIVMVSVWLILETPGTRRYTLPEKRETVILKCNVKDSSMLISLTYDVVLVILCTVYAFKTRKCPENFNEAKFIGFTMYTTCIIWLAFLPIFYVTSSDYRVQTTTMCISVSLSGFVVLGCLFAPKVHIVLFQPQKNVVTHRLHLNRFSVSGTATTYSQSSASTYVPTVCNGREVLDSTTSSL
modifications: SNAP tag labeled with SBG-JF646
B1: the “stoichiometry N” value with HA-Halo-mGluR8 and with HA-Halo-mGluR2 was 1 throughout.
